This note sets out measurements from PMC11748629, “Unidirectional MCM translocation away from ORC drives origin licensing” (Nature Communications, 2025).

The chains are these.
B1: Mcm5 R549A (natural protein, Saccharomyces cerevisiae)
chain: MSFDRPEIYSAPVLQGESPNDDDNTEIIKSFKNFILEFRLDSQFIYRDQLRNNILVKNYSLTVNMEHLIGYNEDIYKKLSDEPSDIIPLFETAITQVAKRISILSRAQSANNNDKDPENTSMDTDSLLLNSLPTFQLILNSNANQIPLRDLDSEHVSKIVRLSGIIISTSVLSSRATYLSIMCRNCRHTTSITINNFNSITGNTVSLPRSCLSTIESESSMANESNIGDESTKKNCGPDPYIIIHESSKFIDQQFLKLQEIPELVPVGEMPRNLTMTCDRYLTNKVIPGTRVTIVGIYSIYNSKNGAGSGRSGGGNGGSGVAIRTPYIKILGIQSDVETSSIWNSVTMFTEEEEEEFLQLSRNPKLYEILTNSIAPSIFGNEDIKKAIVCLLMGGSKKILPDGMRLRGDINVLLLGDPGTAKSQLLKFVEKVSPIAVYTSGKGSSAAGLTASVQRDPMTREFYLEGGAMVLADGGVVCIDEFDKMRDEDRVAIHEAMEQQTISIAKAGITTVLNSRTSVLAAANPIYGRYDDLKSPGDNIDFQTTILSAFDMIFIVKDDHNEERDISIANHVINIHTGNANAMQNQQEENGSEISIEKMKRYITYCRLKCAPRLSPQAAEKLSSNFVTIRKQLLINELESTERSSIPITIRQLEAIIRITESLAKLELSPIAQERHVDEAIRLFQASTMDAASQDPIGGLNQASGTSLSEIRRFEQELKRRLPIGWSTSYQTLRREFVDTHRFSQLALDKALYALEKHETIQLRHQGQNIYRSGV
notes: Mcm5, S. cerevisiae; Subunit of m7, written alone for the contacts seen in OC1M^Mcm5RA; also called Mcm5RA; source: S. cerevisiae strain yGC226, purified as a subunit of MCM-Cdt1

Test [1] addresses T1, Mcm2 (Saccharomyces cerevisiae, UniProt P29469 1-868).
T1 construct: Mcm2, S. cerevisiae; Subunit of m7, written alone for the contacts seen in OC1M^Mcm5RA; also called Mcm2 subunit of MCM; source: S. cerevisiae strain yGC226, purified as a subunit of MCM-Cdt1
T1 sequence: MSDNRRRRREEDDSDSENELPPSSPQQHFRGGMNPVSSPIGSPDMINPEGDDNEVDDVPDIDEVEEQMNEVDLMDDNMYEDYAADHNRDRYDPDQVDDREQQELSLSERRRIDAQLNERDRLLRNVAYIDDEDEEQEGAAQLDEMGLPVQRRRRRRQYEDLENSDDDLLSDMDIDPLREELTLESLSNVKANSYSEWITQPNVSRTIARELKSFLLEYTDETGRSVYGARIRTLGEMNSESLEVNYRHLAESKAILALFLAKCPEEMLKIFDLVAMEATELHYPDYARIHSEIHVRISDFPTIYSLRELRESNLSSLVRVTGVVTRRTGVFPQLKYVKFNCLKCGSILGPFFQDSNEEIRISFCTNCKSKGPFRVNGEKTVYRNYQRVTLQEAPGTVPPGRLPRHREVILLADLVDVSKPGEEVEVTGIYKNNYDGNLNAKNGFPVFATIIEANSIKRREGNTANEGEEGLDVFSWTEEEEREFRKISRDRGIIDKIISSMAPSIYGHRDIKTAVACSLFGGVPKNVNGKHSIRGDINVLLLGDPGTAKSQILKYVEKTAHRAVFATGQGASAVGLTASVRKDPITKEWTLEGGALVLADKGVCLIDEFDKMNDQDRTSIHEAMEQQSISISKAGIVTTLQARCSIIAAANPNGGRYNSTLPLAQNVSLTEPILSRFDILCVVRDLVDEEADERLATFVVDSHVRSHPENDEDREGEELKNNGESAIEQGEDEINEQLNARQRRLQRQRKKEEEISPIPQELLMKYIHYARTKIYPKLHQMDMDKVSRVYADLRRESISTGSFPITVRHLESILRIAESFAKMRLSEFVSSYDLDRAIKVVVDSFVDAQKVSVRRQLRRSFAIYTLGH
Kind of test: cryo-EM structure; OC1M^Mcm5RA: 30 nM MH-ARS1-MH DNA, 60 nM ORC, 90 nM Cdc6, 60 nM MCM-Cdt1 (Mcm5 R549A), 2 mM ATP; same buffer; 30 °C, 30 min; conformer 1 at 3.7 Å, conformer 2 at 3.4 Å (Orc1 ATPase domain seen only in conformer 1). Conditions: both partners purified.

The target of test [2] is B1. The description is as above. Particulars: both partners purified.

As for B1, the binding result in test [1] is given as “binds”.

B2: Orc3 (natural protein, Saccharomyces cerevisiae)
chain: MSDLNQSKKMNVSEFADAQRSHYTVYPSLPQSNKNDKHIPFVKLLSGKESEVNVEKRWELYHQLHSHFHDQVDHIIDNIEADLKAEISDLLYSETTQKRRCFNTIFLLGSDSTTKIELKDESSRYNVLIELTPKESPNVRMMLRRSMYKLYSAADAEEHPTIKYEDINDEDGDFTEQNNDVSYDLSLVENFKRLFGKDLAMVFNFKDVDSINFNTLDNFIILLKSAFKYDHVKISLIFNINTNLSNIEKNLRQSTIRLLKRNYHKLDVSSNKGFKYGNQIFQSFLDTVDGKLNLSDRFVEFILSKMANNTNHNLQLLTKMLDYSLMSYFFQNAFSVFIDPVNVDFLNDDYLKILSRCPTFMFFVEGLIKQHAPADEILSLLTNKNRGLEEFFVEFLVRENPINGHAKFVARFLEEELNITNFNLIELYHNLLIGKLDSYLDRWSACKEYKDRLHFEPIDTIFQELFTLDNRSGLLTQSIFPSYKSNIEDNLLSWEQVLPSLDKENYDTLSGDLDKIMAPVLGQLFKLYREANMTINIYDFYIAFRETLPKEEILNFIRKDPSNTKLLELAETPDAFDKVALILFMQAIFAFENMGLIKFQSTKSYDLVEKCVWRGI
notes: Orc3, S. cerevisiae; Subunit of m1, written alone for the contacts seen in the structures; also called Orc3 subunit of ORC; source: S. cerevisiae strain ySD-ORC, purified as a subunit of ORC
On to B2, for which, in test [2], the binding result was “binds”.
